Measurements published in publication PMC5507356, “Characterization of the molecular chaperone ClpB from the pathogenic spirochaete Leptospira interrogans” (PLoS ONE, 2017).

Target: the molecule itself
Test: AUC; sedimentation velocity, 1.2 mg/ml ClpBLi with 2 mM ATPγS, 20°C, 50 mM Tris-HCl pH 7.5, 200 mM KCl, 20 mM MgCl2, 1 mM EDTA, 2 mM β-mercaptoethanol, 5% glycerol

B1: ClpB from Leptospira interrogans (ClpBLi), recombinant (natural protein)
chain: not shown
notes: Chaperone protein ClpB, Leptospira interrogans; intact protein runs at ~100 kDa; Monomer without nucleotide, hexamer with ATPγS; source: E. coli BL21(DE3), purified (Co-NTA IMAC, Superdex 200 gel filtration); not shown: His6, N-terminal, cleaved
stoichiometry N: 6
